Measured values taken from article PMC7110144.

Columns and labels:
[1] = target: His-CAL1(1-50) (Drosophila melanogaster) (UniProt Q9VEN2); assay: SEC-MALS; complexes refolded from recombinant proteins; Superdex 200 increase 10/300 GL, 50 mM HEPES pH 8.0, 2 M NaCl, 1 mM TCEP, 22°C; 100 µl of 1-5 mg/ml
[2] = target: His-CAL1(1-160) (Drosophila melanogaster) (UniProt Q9VEN2); assay: as above
His-CAL1(1-160) (Drosophila melanogaster), sequence (Q9VEN2 entry or part of it): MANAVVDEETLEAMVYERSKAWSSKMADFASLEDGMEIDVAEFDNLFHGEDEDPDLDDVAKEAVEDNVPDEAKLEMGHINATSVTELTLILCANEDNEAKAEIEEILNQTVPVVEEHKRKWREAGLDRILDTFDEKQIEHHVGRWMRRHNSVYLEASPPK

His-CAL1(1-50) (Drosophila melanogaster), sequence (Q9VEN2 entry or part of it): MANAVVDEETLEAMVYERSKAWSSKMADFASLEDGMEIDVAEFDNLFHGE
CENP-A(144-225)-H4, sequence (Q9V6Q2 144-225, one chain of several): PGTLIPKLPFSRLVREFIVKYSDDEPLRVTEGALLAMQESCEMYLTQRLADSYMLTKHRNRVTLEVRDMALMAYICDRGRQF
CENP-A(101-225)-H4 (from UniProt Q9V6Q2 101-225; P84040 1-103) (complex), sequence (Q9V6Q2 101-225, one chain of several): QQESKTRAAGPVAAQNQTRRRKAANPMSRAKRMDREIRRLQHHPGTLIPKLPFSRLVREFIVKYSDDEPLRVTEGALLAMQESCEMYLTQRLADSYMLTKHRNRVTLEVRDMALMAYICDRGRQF
CENP-A(101-225)-H4 (from UniProt Q9V6Q2 101-225; P84040 1-103) (complex; other documents disagree on this pair), sequence (Q9V6Q2 101-225, one chain of several): as above

| stoichiometry N (CAL1:CENP-A:H4 = 1:1:1) [1] | stoichiometry N (CAL1:CENP-A:H4 = 1:1:1) [2] | Substance |
| --- | --- | --- |
| 1 |  | CENP-A(101-225)-H4 (from UniProt Q9V6Q2 101-225; P84040 1-103) (complex) |
|  | 1 | CENP-A(101-225)-H4 (from UniProt Q9V6Q2 101-225; P84040 1-103) (complex; other documents disagree on this pair) |
|  | 1 | CENP-A(144-225)-H4 (from UniProt Q9V6Q2 144-225; P84040 1-103) (complex; other documents disagree on this pair) |
